From patent US20190038582A1 (published 2019)
Read-outs that look alike come from different tables or passages of the source. Each block holds one binder with its values, some of them ahead of it.

Experiments:
[1] = target: T1, dephosphorylated Aurora A kinase (Aurora A^122-403) (UniProt O14965 122-403); assay: ITC
T1 chain: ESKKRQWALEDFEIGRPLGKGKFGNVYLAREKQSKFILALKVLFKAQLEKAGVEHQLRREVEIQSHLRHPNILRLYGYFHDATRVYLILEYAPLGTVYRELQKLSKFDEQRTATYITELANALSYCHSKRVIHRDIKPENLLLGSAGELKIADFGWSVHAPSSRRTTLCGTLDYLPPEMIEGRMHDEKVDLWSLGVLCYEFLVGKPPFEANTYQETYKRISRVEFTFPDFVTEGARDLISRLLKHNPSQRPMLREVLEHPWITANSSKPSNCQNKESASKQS

[2] = target: T2, dephosphorylated Aurora A kinase (Aurora A^122-403) (human, UniProt O14965 122-403); assay: ITC
T2 construct: also called AurA; deP Aurora A^122-403
T2 sequence: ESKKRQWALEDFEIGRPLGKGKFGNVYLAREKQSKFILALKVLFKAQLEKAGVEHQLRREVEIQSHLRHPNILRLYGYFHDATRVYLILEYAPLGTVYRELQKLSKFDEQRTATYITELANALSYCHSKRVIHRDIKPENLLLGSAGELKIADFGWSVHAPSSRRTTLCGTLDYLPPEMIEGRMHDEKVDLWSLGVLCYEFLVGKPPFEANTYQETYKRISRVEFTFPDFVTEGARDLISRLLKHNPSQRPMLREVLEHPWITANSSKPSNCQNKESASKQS
Procedure: Error bars in FIGS. 18D and 18F represent the standard error for the estimate of Kd and are a measure of the goodness of fit of the data. Error bars in FIG. 18C were calculated through jackknifing.
(§1) Titrations were carried out using Nano ITC isothermal titration calorimeter (TA Instruments) and analyzed via the NanoAnalyze software using the independent fit model. Injectant was added in 1 μl volume, every 180 s, with a constant stirring speed at 350 rpm and at 25° C.

[3] = target: T1, dephosphorylated Aurora A kinase …; assay: ITC
[4] = target: T3, Aurora A kinase in HEK293 cells (human, UniProt O14965 1-403); assay: immunofluorescence co-localization in HEK293 cells
T3 construct: not on the cell surface; also called Aurora A kinase (endogenous, HEK293)
T3 sequence: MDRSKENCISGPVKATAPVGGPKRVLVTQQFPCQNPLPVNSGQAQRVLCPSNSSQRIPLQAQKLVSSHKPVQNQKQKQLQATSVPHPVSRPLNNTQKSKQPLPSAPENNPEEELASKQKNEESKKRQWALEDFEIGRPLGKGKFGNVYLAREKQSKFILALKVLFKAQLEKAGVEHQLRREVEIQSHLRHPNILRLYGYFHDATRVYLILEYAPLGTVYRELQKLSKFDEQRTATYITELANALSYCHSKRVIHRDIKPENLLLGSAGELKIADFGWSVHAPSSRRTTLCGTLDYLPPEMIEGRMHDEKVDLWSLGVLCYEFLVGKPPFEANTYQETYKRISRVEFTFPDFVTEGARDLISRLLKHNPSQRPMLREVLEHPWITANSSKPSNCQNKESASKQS

[5] = target: T1, dephosphorylated Aurora A kinase …; assay: ITC
[6] = target: T1, dephosphorylated Aurora A kinase …; assay: ITC
TPX2 = target: T4, TPX2
T4 chain: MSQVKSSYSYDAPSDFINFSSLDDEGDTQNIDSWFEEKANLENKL

[7] = target: T2, dephosphorylated Aurora A kinase …; assay: ITC; Aurora A pre-saturated with barasertib
Procedure: as §1

[8] = target: T2, dephosphorylated Aurora A kinase …; assay: told with the kinase assay results (FIG. 9); method of the affinity not named there
[9] = target: T1, dephosphorylated Aurora A kinase …; assay: ITC

Kd [1]: 163 nM | binding result [2]: binds
B1: monobody Mb56 (AuroraA_56) (designed binder)
chain: GSVSSVPTKLEVVAATPTSLLISWDAMSDWYYWVDYYRITYGETGGNSPVQEFTVPGSYSTATISGLKPGVDYTITVYASDDVWGDYSPISINYRT
notes: FN3-scaffold monobody; also called Mb3

Kd [3]: 175 nM | binding result [2]: binds
B2: monobody Mb54 (AuroraA_54) (designed binder)
chain: GSVSSVPTKLEVVAATPTSLLISWDAQTYQMYDYVSYYRITYGETGGNSPVQEFTVPGYYSTATISGLKPGVDYTITVYAEGYYSSYSPISINYRT
notes: FN3-scaffold monobody; also called Mb1

binding result [4]: binds | binding result [2]: binds | Kd [5]: 121 nM
B3: sGFP-Mb54 fusion polypeptide (designed binder)
chain: GSVSSVPTKLEVVAATPTSLLISWDAQTYQMYDYVSYYRITYGETGGNSPVQEFTVPGYYSTATISGLKPGVDYTITVYAEGYYSSYSPISINYRT
notes: also called sGFP-Mb54 (aka Mb1); sGFP-Mb1; not shown: supercharged GFP (sGFP)

Kd [3]: 1000 nM | binding result [2]: binds
B4: monobody Mb60 (AuroraA_60) (designed binder)
chain: GSVSSVPTKLEVVAATPTSLLISWDAPAVTVVHYVITYGETGGNSPVQEFTVPGSKSTATISGLKPGVDYTITVYAIDFYWGSYSPISINYRT
notes: FN3-scaffold monobody; also called Mb2 (alternative name herein)

binding result [4]: binds | Kd [6]: 2500 nM | binding result [2]: binds
B5: sGFP-Mb60 fusion polypeptide (designed binder)
chain: GSVSSVPTKLEVVAATPTSLLISWDAPAVTVVHYVITYGETGGNSPVQEFTVPGSKSTATISGLKPGVDYTITVYAIDFYWGSYSPISINYRT
notes: also called sGFP-Mb2 (aka Mb60); not shown: supercharged GFP (sGFP)

Kd [3]: 5400 nM | Kd [2]: ~5000 nM
Binder: MSQVKSSYSYDAPSDFINFSSLDDEGDTQNIDSWFEEKANLENKL (other, also called TPX2 polypeptide) [TPX2]

B6: Aurora A T288V mutant (A^122-403 T288V) (protein)
chain: ESKKRQWALEDFEIGRPLGKGKFGNVYLAREKQSKFILALKVLFKAQLEKAGVEHQLRREVEIQSHLRHPNILRLYGYFHDATRVYLILEYAPLGTVYRELQKLSKFDEQRTATYITELANALSYCHSKRVIHRDIKPENLLLGSAGELKIADFGWSVHAPSSRRTVLCGTLDYLPPEMIEGRMHDEKVDLWSLGVLCYEFLVGKPPFEANTYQETYKRISRVEFTFPDFVTEGARDLISRLLKHNPSQRPMLREVLEHPWITANSSKPSNCQNKESASKQS
kinase activity (phosphorylation of AP peptide) (TPX2): greatly increased its kinase activity

B7: phosphorylated Aurora A kinase (protein)
chain: ESKKRQWALEDFEIGRPLGKGKFGNVYLAREKQSKFILALKVLFKAQLEKAGVEHQLRREVEIQSHLRHPNILRLYGYFHDATRVYLILEYAPLGTVYRELQKLSKFDEQRTATYITELANALSYCHSKRVIHRDIKPENLLLGSAGELKIADFGWSVHAPSSRRTTLCGTLDYLPPEMIEGRMHDEKVDLWSLGVLCYEFLVGKPPFEANTYQETYKRISRVEFTFPDFVTEGARDLISRLLKHNPSQRPMLREVLEHPWITANSSKPSNCQNKESASKQS
kinase activity (phosphorylation of AP peptide) (TPX2): only slightly increased kinase activity

fold weakening of binding affinity (Aurora A pre-saturated with barasertib against Aurora A alone) [7]: 2.8 fold | Kd [1]: 76.9 nM
B8: monobody Mb51 (AuroraA_51) (designed binder)
chain: GSVSSVPTKLEVVAATPTSLLISWDAKPMSYEPVYYYRITYGETGGNSPVQEFTVPGYYSTATISGLKPGVDYTITVYADSMSSYYYSPISINYRT
notes: FN3-scaffold monobody

binding result [4]: binds | Kd [5]: 27.4 nM
B9: sGFP-Mb6 fusion polypeptide (designed binder)
chain: GSVSSVPTKLEVVAATPTSLLISWDAFGHQYEPVYYYRITYGETGGNSPVQEFTVPGYYSTATISGLKPGVDYTITVYAWYVDGSYSSPISINYRT
notes: also called neutral sGFP-Mb6; not shown: supercharged GFP (sGFP)

binding result [8]: binds | Kd [9]: 8.7 nM
B10: monobody Mb2 (aka Mb6) (AuroraA_2) (designed binder)
chain: GSVSSVPTKLEVVAATPTSLLISWDAFGHQYEPVYYYRITYGETGGNSPVQEFTVPGYYSTATISGLKPGVDYTITVYAWYVDGSYSSPISINYRT
notes: also called neutral monobody

fold weakening of binding affinity (Aurora A pre-saturated with barasertib against Aurora A alone) [7]: 5 fold | Kd [1]: 3280 nM
B11: monobody Mb44 (AuroraA_44) (designed binder)
chain: GSVSSVPTKLEVVAATPTSLLISWDAPAVTVDFYVITYGETGGYSYPWQEFEVPGSKSTATISGLKPGVDYTITVYADYGQYFYSPISINYRT
notes: FN3-scaffold monobody; also called M44
